{"source": "paper PMC7192620", "key": {"YBX1 (YB-1)": {"molecular_target": "YBX1 (YB-1) (UniProt P67809 1-324)", "sequence (P67809 whole entry)": "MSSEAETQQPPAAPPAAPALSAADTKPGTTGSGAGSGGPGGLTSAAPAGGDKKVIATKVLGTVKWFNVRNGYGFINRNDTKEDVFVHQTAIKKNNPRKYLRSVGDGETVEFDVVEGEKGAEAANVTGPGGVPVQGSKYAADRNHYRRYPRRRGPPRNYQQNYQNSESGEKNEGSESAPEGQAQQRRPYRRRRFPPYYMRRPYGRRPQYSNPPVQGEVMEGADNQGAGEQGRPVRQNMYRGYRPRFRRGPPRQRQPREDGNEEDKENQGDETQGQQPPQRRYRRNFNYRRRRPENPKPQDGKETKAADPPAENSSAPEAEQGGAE", "test": "ELONA titration"}, "RBM3": {"molecular_target": "T1, RBM3 (UniProt P98179 1-157)", "T1 sequence": "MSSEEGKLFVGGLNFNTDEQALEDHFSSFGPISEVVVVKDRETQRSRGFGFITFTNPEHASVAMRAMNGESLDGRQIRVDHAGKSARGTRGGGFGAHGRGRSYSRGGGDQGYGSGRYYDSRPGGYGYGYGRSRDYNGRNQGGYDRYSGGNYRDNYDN", "test": "ELONA titration"}}}
{"binder": "Sequence 7 (ssDNA, 5' biotin (5Biosg)) DNA: CTAGCATGACTGCAGTACGTTACTTAATTGGGGGGGGGGATTCTGTTTTGTCTCTCTGTCTCTTATACACATCTGACGCTGCCGACGA", "values": [{"measurement": "Kd", "setting": "YBX1 (YB-1)", "value": "~3", "unit": "nM"}]}
{"binder": "Sequence 7 RC (ssDNA, 5' biotin (5Biosg)) DNA: TCGTCGGCAGCGTCAGATGTGTATAAGAGACAGAGAGACAAAACAGAATCCCCCCCCCCAATTAAGTAACGTACTGCAGTCATGCTAG", "values": [{"measurement": "binding result", "setting": "RBM3", "value": "no binding"}]}
